In this assay the target is PFD1235w DBLβ3_D4, wild type (P. falciparum 3D7). Description: SPR. In general terms: In SPR one partner is held on a chip, and binding of the other changes the refractive index at the surface.

B1: ICAM-1_D1 (domain or fragment)
chain: QTSVSPSKVILPRGGSVLVTCSTSCDQPKLLGIETPLPKKELLLPGNNRKVYELSNVQEDSQPMCYSNCPDGQSTAKTFLTVYWT
For orientation: Kd means the free concentration of one partner at which half of the binding sites on the other are occupied at equilibrium, for simple one-to-one binding. As usually defined, the koff is the first-order rate constant of dissociation. Read a high koff as fast dissociation. Turning to B1, the Kd is 2.34 nM and the koff came out at 0.00337 s⁻¹.

Values taken from article PMC4574524 (Journal of immunology (Baltimore, Md. : 1950), 2015).
